Source: the supplement of paper PMC12764529
± gives the half width of the 95% confidence interval.

assay: folding stability dG unfold (combined trypsin and chymotrypsin); higher = more stable
Procedure, shortened: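 Unfolding free energy was derived, per protease or combined, by relating Bayesian-fitted K50 values from sequencing counts to a sequence-predicted unfolded-state K50 and a shared folded-state K50. The underlying digests exposed cysteine-free mini-proteins under 80 residues, in a PA-tagged cDNA display construct, to trypsin and chymotrypsin at 11 threefold-diluted concentrations and to a no-protease condition. A filter kept only designs with AlphaFold2 dimer inter-PAE above 15.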

Compared with “SADNYFIRIKHKLNGKPRERTYPIDSPEEALDAIKDELQPHFPGAPIDKVKIDVFNPNNGEWQEITLKISAG [r14_54_TrROS]”, “SAGTTSVVSTETTEFPDGTVTTTTTVLYLEPEGDGYVKVSETRVTTTYTIDPATGTVVTSTTTTTPLAGSAG [r5_828_JUSTAS]” is higher in “folding stability dG unfold” value: 0.256 ± 0.13 kcal/mol for the first, 1.99 ± 0.098 kcal/mol for the second.

First: SAGGSAGGSRIVRNPDGWYYVRIESPEKGQERYIWIPKGNAEEIADPFGIRNVSIYRPDEPIPSAGGSAGGS [r12_294_TrROS]
Second: SMISLEKETSLPPEEARRAVERFLAELPEVERLLSVEVREDPDSYTVSLTLEGGAVSPEVLEAIERALAASA [r9_195_JUSTAS]
The “folding stability dG unfold” value of the first is lower: 0.937 ± 0.19 kcal/mol for the first, 2.63 ± 0.062 kcal/mol for the second.

Going from “SAGPPDWKPIAEFEYNIPMPPGETASEIENEILERIRPQGIKYVTIPVQYDPENGWIQVDVEIWVPPGASAG [r5_924_TrROS]” to “SAGGELTEEQRKRLEEERRRREEEERRRQAAPVKVTVTVEFDPETGEVRVRVFNENGELVAEARFKVESAGG [r13_247_TrROS_Hall]”, the “folding stability dG unfold” value rises from 0.891 ± 0.11 kcal/mol to 3.17 ± 0.19 kcal/mol.

Compared with “SAGGSAGGSAGGKIKVPPGAIILVETESGEWKEIKPGDEIELKNSKVYIFNENGEKIELPSAGGSAGGSAGG [r7_54_TrROS_Hall]”, “SAGGPENARPVTFTVTLPDGDVVPITVTEHPDGTVTVTVTVLRFDGAEPVPATATITVPAEVVRRLFSAGGS [r16_470_TrMRF]” is higher in “folding stability dG unfold” value: 1.28 ± 0.18 kcal/mol for the first, 2.48 ± 0.034 kcal/mol for the second.

Compared with “DLDITDPALVPVPERNYPFTVVSLTGPGNGAVTVELTLDGQTVSATVDPSTGTVTFTFPGTGASAVATADPS [r1_125_TrMRF]”, “SAGGSAGGSAGMPVITVDVYEDDNTYTITITLSDGTPVVVTVTSPDTPVEEAVAAVIAALSAGGSAGGSAGG [r11_313_JUSTAS]” is higher in “folding stability dG unfold” value: 1.68 ± 0.12 kcal/mol for the first, 3.16 ± 0.16 kcal/mol for the second.

First: SAGGGMIERYDGKIVIKLKGPNGKEWTSTTEPLPDGTARITVTHPDKVLYLEHTPEGISVVSEVSNEKSAGG [r13_619_JUSTAS]
Second: SMKIEKKDGKYVLTIKIKADSVEEVLNALKKLGIKFPPGVKEIKVVKVEEVNGEVYITIVVDTEEALKALSA [r9_820_TrROS_Hall]
The “folding stability dG unfold” value of the first is lower: -0.411 ± 0.22 kcal/mol for the first, 2.6 ± 0.28 kcal/mol for the second.

First: SAGGMVVRIKVKIKNPETGEVIEVEALVEVDEDGNVTITLPNGKKITLPKGAKVEIVDVEELPPEDLSAGGS [r16_223_TrROS_Hall]
Second: SAGGSAGGSAGGEVVVVPLPDGSYVVALPDGTVVVYNPETGRWEERRSEDVVIAPGRPDESAGGSAGGSAGG [r7_656_TrMRF]
The “folding stability dG unfold” value of the first is higher: 3.52 ± 0.093 kcal/mol for the first, 2.4 ± 0.03 kcal/mol for the second.

Compared with “SAGGSAGGIWIPVPDGYWIKIEMPDNNGEPKATHEMDSPADVEEALEEMPPDNLTKVEIWPLPDSAGGSAGG [r6_705_TrROS]”, “SAGGSAEPIGTLTLSFPVKVKVKDADGSIHEYDVTITVTPTVYRLPNGDLVVGLDVEIVFPDGSSLPGSAGG [r13_113_TrMRF]” is higher in “folding stability dG unfold” value: 0.532 ± 0.71 kcal/mol for the first, 4.16 ± 0.066 kcal/mol for the second.

Compared with “SAGGSAGGSAGWIDPEDIKKIQHERNPNNGRGEMRLEFENGKPVEIEFKSPEEALDWLLKSAGGSAGGSAGG [r11_339_TrROS]”, “SAGGSAGGSAGMKTVLSTKTEPSPEDLTVTTVTLGDKVYTIIYDPKTGKPLKVIPAGEFKSAGGSAGGSAGG [r11_851_JUSTAS]” is higher in “folding stability dG unfold” value: -0.185 ± 0.13 kcal/mol for the first, 0.857 ± 0.12 kcal/mol for the second.

Compared with “SAGMSPELLEALRKAAEEEGLEVVEIKVEKLPNGEVKITIRLKNGKEIKEITLPKDVKTPEEALKLIRESAG [r5_352_TrROS_Hall]”, “SAGKPVLLKIEIEVKVNGKTVKLELEILVEPGETIEELLAALPGVEEVKIKIEPISLEELEELKKKKPSAGG [r19_339_TrROS_Hall]” is lower in “folding stability dG unfold” value: 4.31 ± 0.1 kcal/mol for the first, 1.53 ± 0.3 kcal/mol for the second.

Compared with “SAGGSAGGSAGKLVVVRAIDPENPFVVATTSDNRTYVFDSLEELLEQVPEGVPVLFLPTVSAGGSAGGSAGG [r17_295_TrMRF]”, “SAKIKVEIVEIDEKTGTIKIKAEIELPDGTKIELEATIKIEPVEVEKKEVTDKNGKKITVTKIKIKLPEKSA [r9_610_TrROS_Hall]” is higher in “folding stability dG unfold” value: 0.933 ± 0.081 kcal/mol for the first, 2.59 ± 0.71 kcal/mol for the second.

Going from “SAMYVYRARVEVRGPDGELLAEEEIVAESPEELKVAVLERFGLKESEIVRLEVEPVIPLEEFLELLEKGSAG [r14_852_TrMRF]” to “SAGGSAGGSGWRPARVVRVERYRDPVNPRWYYRVEAELPDRRVTLVVPENAPVDEDGVLLIPFSAGGSAGGS [r20_49_TrMRF]”, the “folding stability dG unfold” value falls from 2.39 ± 0.11 kcal/mol to 1.35 ± 0.034 kcal/mol.

First: SAGGSAGGSAGGMRVYEFDSEEEAQAFAEELRAAEPDVREVTIERDPETGKYRVTVVAESAGGSAGGSAGGS [r10_544_JUSTAS]
Second: SAGGSAGGSAGGHKIDIEWERYEDGMYRVTITIRSNNGPRKIPFWVPPGYETADDILKQISAGGSAGGSAGG [r7_75_TrROS]
The “folding stability dG unfold” value of the first is higher: 4.62 ± 0.14 kcal/mol for the first, 1.88 ± 0.18 kcal/mol for the second.

Compared with “SAGMKIENAEITEIKVTVNEDGTVTVEMTVRLKNGYVVKVTMTFKNGKLEIKPEKVEVYKVKLPEEELSAGG [r19_84_TrROS_Hall]”, “SKKVLFIEAKSEEELKAAVKALLDAGYDEIVVSSPEAAKALKELLPDVKVTLVEVKPEKKLSEEEKKKLKSA [r9_639_TrROS_Hall]” is lower in “folding stability dG unfold” value: 2.09 ± 0.41 kcal/mol for the first, 1.05 ± 0.26 kcal/mol for the second.

Going from “SAGGSAGGSAGKIEVTYNKENNTFTVKIVNKKTKKVITIKVKAKSKEDALKKVKELLEKLSAGGSAGGSAGG [r17_386_TrROS_Hall]” to “SAGGSAGGSAGGMEEIRELLEKAKKEGLESITVTVNDPAEATEVRAYAEEKGIPVTINASAGGSAGGSAGGS [r10_307_JUSTAS]”, the “folding stability dG unfold” value falls from 3.11 ± 0.19 kcal/mol to -0.0348 ± 0.16 kcal/mol.

First: SAGGSAFPIRIKDDNQKKIMIPFDSPEELEDLLKEPGIDKVDPEPNPDGNQPWFTIDLPNGKIELWSAGGSA [r15_632_TrROS]
Second: SAGMTFEAEVKEKTIYIPEINNIIKIKIVNLKPPEGPIIPIIKIEFYVSENTTPEDIIKLLKELNIPVESAG [r5_486_TrMRF]
The “folding stability dG unfold” value of the first is lower: -0.826 ± 0.38 kcal/mol for the first, 2.07 ± 0.099 kcal/mol for the second.
